What was measured:
[1] = target: Myelin basic protein (MBP) (human) (UniProt P02686); assay: flow cytometry, intracellular staining of CD14+ macrophages from CSF; isotype control background
[2] = target: Myelin basic protein (MBP) (human) (UniProt P02686); assay: flow cytometry, intracellular staining of CD14+ macrophages from peripheral blood; isotype control background

Chain of UniProt P02686 (P02686 whole entry): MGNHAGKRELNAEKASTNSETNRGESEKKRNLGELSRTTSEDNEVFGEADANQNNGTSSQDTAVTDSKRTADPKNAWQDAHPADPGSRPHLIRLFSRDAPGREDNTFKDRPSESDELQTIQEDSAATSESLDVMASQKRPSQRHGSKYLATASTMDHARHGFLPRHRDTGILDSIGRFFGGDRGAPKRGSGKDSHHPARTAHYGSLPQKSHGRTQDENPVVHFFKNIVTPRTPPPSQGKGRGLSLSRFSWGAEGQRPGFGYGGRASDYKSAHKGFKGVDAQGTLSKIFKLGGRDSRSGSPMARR

## Non-specific isotype specific antibody (Rabbit IgG) from Epitomics
[1]
  Geometric Mean FI: 292
  Mean FI: 328
[2]
  Geometric Mean FI: 766
  Mean FI: 783
